T1: FcγRIIA-R167-Sino (human, UniProt P12318 34-218, limits assumed)
T1 construct: bought; Arg at 167; also called FCRIIA-R167-Sino; CD32A Protein, Human, Recombinant (167 Arg, His Tag)
T1 sequence (looked up): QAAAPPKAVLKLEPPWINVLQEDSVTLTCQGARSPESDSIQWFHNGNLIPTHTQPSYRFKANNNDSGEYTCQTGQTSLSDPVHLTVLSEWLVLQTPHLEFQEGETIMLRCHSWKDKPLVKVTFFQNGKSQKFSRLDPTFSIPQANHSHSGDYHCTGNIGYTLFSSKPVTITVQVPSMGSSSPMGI

T2: FcγRIIA-H167-Acro (human, UniProt P12318 36-218, limits assumed)
T2 construct: bought; His at 167; also called Human Fc gamma RIIA/CD32a (H167) Protein, His Tag
T2 sequence (looked up): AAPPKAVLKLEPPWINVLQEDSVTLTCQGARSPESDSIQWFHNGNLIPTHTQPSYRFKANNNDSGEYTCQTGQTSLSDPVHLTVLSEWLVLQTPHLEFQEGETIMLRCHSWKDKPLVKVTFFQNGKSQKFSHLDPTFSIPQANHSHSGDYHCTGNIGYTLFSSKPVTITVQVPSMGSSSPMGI


Legend:
FcRn [1] = biological target: T3, FcRn (human, UniProt P55899 24-297; P61769 21-119); test: SPR Biacore T200; binder captured on protein A chip, Fc receptor as analyte
T3 construct: bought; also called FcγRn; FcRn-Acro
Method: (§1) Binding affinities of the fusion proteins PDL1-TGFbR2-3A (IgG1) (or PDL1-TGFbR2-3A-IgG1) and PDL1-TGFbR2-3A-IgG4 to human Fc receptors were measured by surface plasmon resonance (SPR) using Biacore™ T200 biosensor equipped with pre-immobilized protein A sensor chips. The Fc receptors included FcγRI-Sino, FcγRIIA-R167-Sino, FcγRIIIA-F176-Sino, FcγRIIIB-Sino, and FcγRn. A humanized CTLA4 antibody CT4-4G12-IgG1 (CT4-4G12, or 4G12; VH SEQ ID NO: 44, VL SEQ ID NO: 45) was used as a control to test binding affinity to FcγRn.

human CTLA4 (hCTLA4-His) = human CTLA4 (hCTLA4-His) (human, UniProt P16410 36-161, limits assumed); test: SPR Biacore T200; binder captured on protein A chip, target as analyte
human CTLA4 (hCTLA4-His), sequence (P16410 36-161 limits assumed): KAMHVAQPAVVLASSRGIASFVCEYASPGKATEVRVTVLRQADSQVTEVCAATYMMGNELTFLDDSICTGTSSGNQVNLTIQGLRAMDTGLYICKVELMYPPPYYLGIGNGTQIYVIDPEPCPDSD
Method: Binding affinities of the fusion proteins against human CTLA4 (hCTLA4-His) or human PD-L1 (hPDL1) were measured by surface plasmon resonance (SPR) using Biacore™ T200 biosensor equipped with pre-immobilized protein A sensor chips. A CTLA4 antibody CT4-4G12-IgG1 (CT4) was used as a control. ATOR1015-CD86 (CD86) and KN035-IgG1 (with D265A mutation in heavy chain constant domain) were also used as controls.

FcRn [2] = biological target: T3, FcRn; test: SPR (Biacore T200), antibody captured on protein A sensor chip, FcRn-Acro as analyte; analyte range 1000nm-15.625nm
Source text: (§2) The Fc receptors included FcγRIIB (FcγRIIB-Acro), FcγRIIA (FcγRIIA-H167-Acro), FcγRIIIA (FcγRIIIA-V176-Acro), FcγRIIIB (FcγRIIIB-NA1-Acro), FcγRI (FcγRI-Sino), and FcRn (FcRn-Acro).

FcγRI-Sino [3] = biological target: T4, FcγRI-Sino (human, UniProt P12314 16-288, limits assumed); test: SPR Biacore T200; binder captured on protein A chip, Fc receptor as analyte
T4 construct: bought; also called CD64 Protein, Human, Recombinant (His Tag)
T4 sequence (P12314 16-288 limits assumed): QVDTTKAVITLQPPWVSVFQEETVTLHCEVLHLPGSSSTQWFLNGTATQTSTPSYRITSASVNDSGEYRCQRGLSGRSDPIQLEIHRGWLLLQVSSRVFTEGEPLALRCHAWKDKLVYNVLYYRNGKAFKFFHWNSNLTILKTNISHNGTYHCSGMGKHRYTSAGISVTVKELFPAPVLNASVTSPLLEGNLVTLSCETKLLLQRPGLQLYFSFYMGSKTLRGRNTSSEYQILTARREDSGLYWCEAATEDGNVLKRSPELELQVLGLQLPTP
Method: as §1

FcγRIIIB-Sino = biological target: T5, FcγRIIIB-Sino (human, UniProt O75015 17-200, limits assumed); test: as above
T5 construct: bought; also called FCRIIIB-Sino; CD16b Protein, Human, Recombinant (NA1 allotypes, His Tag)
T5 sequence (O75015 other isoform, or with tags, fused parts or gaps limits assumed): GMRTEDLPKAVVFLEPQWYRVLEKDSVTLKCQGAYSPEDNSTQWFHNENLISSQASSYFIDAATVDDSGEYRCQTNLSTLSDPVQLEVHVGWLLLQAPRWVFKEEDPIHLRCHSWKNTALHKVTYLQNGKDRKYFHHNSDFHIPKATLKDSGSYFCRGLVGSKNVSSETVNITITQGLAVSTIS
Method: as §1

FcγRIIA-R167-Sino = biological target: T1, FcγRIIA-R167-Sino; test: as above
Method: as §1

FcγRI-Sino [4] = biological target: T4, FcγRI-Sino; test: SPR (Biacore T200), antibody captured on protein A sensor chip, Fc receptor as analyte; analyte range 400nm-6.25nm
Source text: as §2

FcγRIIIA-V176-Acro = biological target: T6, FcγRIIIA-V176-Acro (human, UniProt P08637 17-208); test: SPR (Biacore T200), antibody captured on protein A sensor chip, Fc receptor as analyte; analyte range 400nm-3.125nm
T6 construct: bought; Val at 176; also called Human Fc gamma RIIIA/CD16a (V176) Protein, His Tag
T6 sequence (P08637 17-208 F176V limits assumed): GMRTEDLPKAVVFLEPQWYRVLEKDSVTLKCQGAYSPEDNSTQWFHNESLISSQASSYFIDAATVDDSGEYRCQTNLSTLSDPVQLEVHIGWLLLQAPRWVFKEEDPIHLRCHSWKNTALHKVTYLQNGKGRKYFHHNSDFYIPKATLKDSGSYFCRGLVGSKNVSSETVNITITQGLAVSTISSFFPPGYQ
Source text: as §2

FcγRIIA-H167-Acro = biological target: T2, FcγRIIA-H167-Acro; test: SPR (Biacore T200), antibody captured on protein A sensor chip, Fc receptor as analyte; analyte range 800nm-6.25nm
Source text: as §2

FcγRIIIB-NA1-Acro = biological target: T7, FcγRIIIB-NA1-Acro (human, UniProt O75015 17-200, limits assumed); test: as above
T7 construct: bought; also called Human Fc gamma RIIIB/CD16b (NA1) Protein, His Tag
T7 sequence (O75015 other isoform, or with tags, fused parts or gaps limits assumed): as the sequence (O75015 other isoform, or with tags, fused parts or gaps limits assumed) above
Source text: as §2

TGFb1 = biological target: T8, TGFb1 (Homo sapiens (Human), UniProt P01137 279-390, Active TGF-beta-1 is a disulfide-linked homodimer of this chain; one copy is given.); test: SPR; binder as capture solution, TGFb1 as analyte
T8 construct: also called TGFb1 protein
T8 sequence (P01137 279-390 limits assumed): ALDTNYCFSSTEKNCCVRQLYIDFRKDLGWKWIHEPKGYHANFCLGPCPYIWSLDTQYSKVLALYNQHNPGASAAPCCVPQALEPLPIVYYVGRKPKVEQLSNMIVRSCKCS

| Kd (FcRn [1]) | Kd (human CTLA4 (hCTLA4-His)) | koff (human CTLA4 (hCTLA4-His)) | kon (human CTLA4 (hCTLA4-His)) | Kd (FcRn [2]) | Kd (FcγRI-Sino [3]) | Kd (FcγRIIIB-Sino) | Kd (FcγRIIA-R167-Sino) | Kd (FcγRI-Sino [4]) | Kd (FcγRIIIA-V176-Acro) | Kd (FcγRIIA-H167-Acro) | Kd (FcγRIIIB-NA1-Acro) | Kd (TGFb1) | koff (TGFb1) | kon (TGFb1) | Binder |
| --- | --- | --- | --- | --- | --- | --- | --- | --- | --- | --- | --- | --- | --- | --- | --- |
| 126 nM | 5.91 nM | 0.00151 s⁻¹ | 256000 M⁻¹ s⁻¹ | – | – | – | – | – | – | – | – | – | – | – | CT4-4G12-IgG1 (antibody, IgG1; also called humanized CTLA4 antibody) heavy: not shown light: DIQMTQSPSFLSASVGDRVTITCRAGENIYSYLAWYQQKPGKAPKLLIYNARTLAEGVPSRFSGSGSGTEFTLTISSLQPEDFATYYCQHHYGSPRTFGGGTKLEIKRTVAAPSVFIFPPSDEQLKSGTASVVCLLNNFYPREAKVQWKVDNALQSGNSQESVTEQDSKDSTYSLSSTLTLSKADYEKHKVYACEVTHQGLSSPVTKSFNRGEC |
| – | – | – | – | 1250 nM | 6.52 nM | 1210 nM | 692 nM | 101 nM | 263 nM | 1050 nM | 33100 nM | – | – | – | PDL1-avelumab (antibody, human IgG1, lambda, IgG1; also called anti-PD-L1 IgG1 antibody; PD-L1 antibody) heavy: not shown light: QSALTQPASVSGSPGQSITISCTGTSSDVGGYNYVSWYQQHPGKAPKLMIYDVSNRPSGVSNRFSGSKSGNTASLTISGLQAEDEADYYCSSYTSSSTRVFGTGTKVTVLGQPKANPTVTLFPPSSEELQANKATLVCLISDFYPGAVTVAWKADGSPVKAGVETTKPSKQSNNKYAASSYLSLTPEQWKSHRSYSCQVTHEGSTVEKTVAPTECS |
| 214 nM | – | – | – | – | 273 nM | 576 nM | 1780 nM | – | – | – | – | – | – | – | PDL1-TGFbR2-3A-IgG4 (antibody, IgG4 subtype of PDL1-TGFbR2-3A) heavy: EVQLLESGGGLVQPGGSLRLSCAASGFTFSSYIMMWVRQAPGKGLEWVSSIYPSGGITFYADTVKGRFTISRDNSKNTLYLQMNSLRAEDTAVYYCARIKLGTVTTVDYWGQGTLVTVSSASTKGPSVFPLAPCSRSTSESTAALGCLVKDYFPEPVTVSWNSGALTSGVHTFPAVLQSSGLYSLSSVVTVPSSSLGTKTYTCNVDHKPSNTKVDKRVESKYGPPCPPCPAPEFLGGPSVFLFPPKPKDTLMISRTPEVTCVVVDVSQEDPEVQFNWYVDGVEVHNAKTKPREEQFNSTYRVVSVLTVLHQDWLNGKEYKCKVSNKGLPSSIEKTISKAKGQPREPQVYTLPPSQEEGGGGSGGGGSIPPHVQKSVNNDMIVTDNNGAVKFPQLCKFCDVRFSTCDNQKSCMSNCSITSICEKPQEVCVAVWRKNDENITLETVCHDPKLPYHDFILEDAASPKCIMKEKKKPGETFFMCSCSSDECNDNIIFSEEYNTSNPDGGGGSGGGGSVSLTCLVKGFYPSDIAVEWESNGQPENNYKTTPPVLDSDGSFFLYSRLTVDKSRWQEGNVFSCSVMHEALHNHYTQKSLSLSLGK light: QSALTQPASVSGSPGQSITISCTGTSSDVGGYNYVSWYQQHPGKAPKLMIYDVSNRPSGVSNRFSGSKSGNTASLTISGLQAEDEADYYCSSYTSSSTRVFGTGTKVTVLGQPKANPTVTLFPPSSEELQANKATLVCLISDFYPGAVTVAWKADGSPVKAGVETTKPSKQSNNKYAASSYLSLTPEQWKSHRSYSCQVTHEGSTVEKTVAPTECS |
| – | – | – | – | 160 nM | – | – | – | 27.1 nM | 17.3 nM | 115 nM | 501 nM | – | – | – | PDL1-mIL7-3A-mIFNa4 (antibody, human IgG1, lambda, 3A-HC format: mIL7 at the 3A site, mIFNa4 at the heavy chain C-terminus through a linker) heavy: EVQLLESGGGLVQPGGSLRLSCAASGFTFSSYIMMWVRQAPGKGLEWVSSIYPSGGITFYADTVKGRFTISRDNSKNTLYLQMNSLRAEDTAVYYCARIKLGTVTTVDYWGQGTLVTVSSASTKGPSVFPLAPSSKSTSGGTAALGCLVKDYFPEPVTVSWNSGALTSGVHTFPAVLQSSGLYSLSSVVTVPSSSLGTQTYICNVNHKPSNTKVDKKVEPKSCDKTHTCPPCPAPELLGGPSVFLFPPKPKDTLMISRTPEVTCVVVDVSHEDPEVKFNWYVDGVEVHNAKTKPREEQYNSTYRVVSVLTVLHQDWLNGKEYKCKVSNKALPAPIEKTISKAKGQPREPQVYTLPPSRDEGGGGSGGGGSECHIKDKEGKAYESVLMISIDELDKMTGTDSNCPNNEPNFFRKHVCDDTKEAAFLNRAARKLKQFLKMNISEEFNVHLLTVSQGTQTLVNCTSKEEKNVKEQKKNDACFLKRLLREIKTCWNKILKGSIGGGGSGGGGSVSLTCLVKGFYPSDIAVEWESNGQPENNYKTTPPVLDSDGSFFLYSKLTVDKSRWQQGNVFSCSVMHEALHNHYTQKSLSLSPGAGGGGSGGGGSGGGGSGGGGSCDLPHTYNLGNKRALTVLEEMRRLPPLSCLKDRKDFGFPLEKVDNQQIQKAQAILVLRDLTQQILNLFTSKDLSATWNATLLDSFCNDLHQQLNDLKACVMQEPPLTQEDSLLAVRTYFHRITVYLRKKKHSLCAWEVIRAEVWRALSSSTNLLARLSEEKE light: QSALTQPASVSGSPGQSITISCTGTSSDVGGYNYVSWYQQHPGKAPKLMIYDVSNRPSGVSNRFSGSKSGNTASLTISGLQAEDEADYYCSSYTSSSTRVFGTGTKVTVLGQPKANPTVTLFPPSSEELQANKATLVCLISDFYPGAVTVAWKADGSPVKAGVETTKPSKQSNNKYAASSYLSLTPEQWKSHRSYSCQVTHEGSTVEKTVAPTECS |
| 19.4 nM | – | – | – | – | 14.5 nM | 1330 nM | 844 nM | – | – | – | – | 37.3 nM | 0.00573 s⁻¹ | 154000 M⁻¹ s⁻¹ | PDL1-TGFbR2-3A (antibody, IgG1; also called PDL1-TGFbR2-3A (IgG1); PDL1-TGFbR2-3A-IgG1) heavy: EVQLLESGGGLVQPGGSLRLSCAASGFTFSSYIMMWVRQAPGKGLEWVSSIYPSGGITFYADTVKGRFTISRDNSKNTLYLQMNSLRAEDTAVYYCARIKLGTVTTVDYWGQGTLVTVSSASTKGPSVFPLAPSSKSTSGGTAALGCLVKDYFPEPVTVSWNSGALTSGVHTFPAVLQSSGLYSLSSVVTVPSSSLGTQTYICNVNHKPSNTKVDKKVEPKSCDKTHTCPPCPAPELLGGPSVFLFPPKPKDTLMISRTPEVTCVVVDVSHEDPEVKFNWYVDGVEVHNAKTKPREEQYNSTYRVVSVLTVLHQDWLNGKEYKCKVSNKALPAPIEKTISKAKGQPREPQVYTLPPSRDEGGGGSGGGGSIPPHVQKSVNNDMIVTDNNGAVKFPQLCKFCDVRFSTCDNQKSCMSNCSITSICEKPQEVCVAVWRKNDENITLETVCHDPKLPYHDFILEDAASPKCIMKEKKKPGETFFMCSCSSDECNDNIIFSEEYNTSNPDGGGGSGGGGSVSLTCLVKGFYPSDIAVEWESNGQPENNYKTTPPVLDSDGSFFLYSKLTVDKSRWQQGNVFSCSVMHEALHNHYTQKSLSLSPGK light: QSALTQPASVSGSPGQSITISCTGTSSDVGGYNYVSWYQQHPGKAPKLMIYDVSNRPSGVSNRFSGSKSGNTASLTISGLQAEDEADYYCSSYTSSSTRVFGTGTKVTVLGQPKANPTVTLFPPSSEELQANKATLVCLISDFYPGAVTVAWKADGSPVKAGVETTKPSKQSNNKYAASSYLSLTPEQWKSHRSYSCQVTHEGSTVEKTVAPTECS |
